The values that follow come from PMC5052687.

For this assay, the target named is human CD36 ectodomain (residues 35-439), C-terminal 8xHis and biotinylated BAP tag (human) (UniProt P16671). Briefly: SPR; biotinylated CD36 (wild type or F153A) immobilised on a CAPture chip to ~700 RU; CIDRα domains as analytes, two-fold dilutions from 400 nM (Supplementary Figure 10: 400 nM only), 240 s injection, 300 s dissociation; 25 °C, 20 mM HEPES pH 7.5, 0.15 M NaCl, 0.005% Tween20; affinities from equilibrium binding, one site-binding model.
human CD36 ectodomain (residues 35-439), C-terminal 8xHis and biotinylated BAP tag (human), sequence (P16671 35-439): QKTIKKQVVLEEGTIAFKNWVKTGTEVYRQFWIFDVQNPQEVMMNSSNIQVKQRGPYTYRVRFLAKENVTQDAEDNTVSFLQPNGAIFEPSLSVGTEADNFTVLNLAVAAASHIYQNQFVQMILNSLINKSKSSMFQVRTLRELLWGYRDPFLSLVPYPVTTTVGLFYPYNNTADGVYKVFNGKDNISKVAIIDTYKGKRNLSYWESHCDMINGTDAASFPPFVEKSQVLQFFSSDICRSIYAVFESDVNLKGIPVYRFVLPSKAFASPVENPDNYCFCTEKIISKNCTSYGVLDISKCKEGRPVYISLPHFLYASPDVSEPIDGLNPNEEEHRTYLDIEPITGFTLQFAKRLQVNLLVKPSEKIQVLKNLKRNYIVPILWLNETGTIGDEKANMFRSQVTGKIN

In the case of “IT4var26 CIDRα3.3 domain (domain or fragment)”, the Kd is 9.6 nM.
